Results published in paper PMC12098869, “An mRNA-display derived cyclic peptide scaffold reveals the substrate binding interactions of an N-terminal cysteine oxidase” (Nature Communications, 2025).
Where “and” joins values, the source holds several entries; their conditions need not be identical. Equal entries are not always repeated. Blank lines part the entries; values can stand above or below the molecule they belong to. Where a SMILES comes first, the peptide text is derived from it. Bridges are numbered along the chain shown (N, C = ends). Where no end group is shown, it is not given here. Side-chain parts run from the residue outwards. [ ]: non-standard residue; d: D form. Orn = NCCC[C@H](N)C(=O)O; Dap = NC[C@H](N)C(=O)O

Columns and labels:
[1] = biological target: T1, human ADO (Homo sapiens, UniProt Q96SZ5); assay: SPR single-cycle kinetic (SCK) binding of cyclic peptides to ADO; conditions: for KD: Supplementary Fig. 4 series
T1 construct: Full-length human ADO (Uniprot ID: Q96SZ5) was cloned; made in house; host or cells: E. coli Rosetta2(DE3)
T1 sequence (Q96SZ5 1-270): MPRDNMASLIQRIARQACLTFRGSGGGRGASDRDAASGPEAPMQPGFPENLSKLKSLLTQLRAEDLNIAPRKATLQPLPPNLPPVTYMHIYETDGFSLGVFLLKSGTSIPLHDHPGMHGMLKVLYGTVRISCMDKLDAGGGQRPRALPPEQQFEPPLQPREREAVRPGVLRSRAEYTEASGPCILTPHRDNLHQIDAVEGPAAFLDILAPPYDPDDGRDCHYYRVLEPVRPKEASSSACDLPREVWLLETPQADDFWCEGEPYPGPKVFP
Source text: After six cycles, clear enrichment of several CPs was observed by next-generation sequencing. The most enriched CPs (CP1-8, numbered according to their percentage enrichment in the final selection round) were selected for subsequent analysis (Table 1). CP1, 5, 6 and 7 are related in sequence, while CP2, 3, 4, and 8 are unique compositions (Fig. 1b). These CPs were subsequently produced by solid-phase peptide synthesis (SPPS) and analysed by surface plasmon resonance (SPR) using single cycle kinetic (SCK) analysis to confirm and quantify binding to ADO. ADO could interact with each CP to varying degrees (Supplementary Fig. 4, Table 1, Fig. 1dleft).
SPR measurements were made using a Biacore T200 (Cytiva) instrument and data were analysed using the Biacore Insight Evaluation Software. Biotinylated-ADO was immobilised on a Biotin CAP chip (Cytiva) with a target density of ∼2500–3000 RU and peptide/protein substrates were injected over the chip. Experiments were conducted at 4 °C using both multi-cycle (fit using the equilibrium steady state affinity 1:1 binding model) and single-cycle kinetics mode (fit using a 1:1 binding model). A buffer comprising 20 mM HEPES pH 7.5, 500 mM NaCl, 10 mM DTT, and 0.1% (v/v) tween-20 was used as the running buffer at a flow rate of 50 μL/minute.

[2] = biological target: T2, 2-aminoethanethiol dioxygenase (ADO), full-length human, N-terminally His-tagged and biotinylated … (human, UniProt Q96SZ5 1-270, biotin (biotinylated during expression, 0.2 mM biotin added)); assay: SPR; single-cycle kinetics (1:1 binding model); biotinylated ADO immobilised on a Biotin CAP chip (~2500-3000 RU), cyclic peptide injected; Biacore T200, 4 °C; 20 mM HEPES pH 7.5, 500 mM NaCl, 10 mM DTT, 0.1% tween-20; 50 µL/minute; each cell is one of three independent measurements; conditions: both partners purified
T2 construct: 2-aminoethanethiol dioxygenase (ADO), human, UniProt Q96SZ5, full length; Immobilised through its biotin on a Biotin CAP chip for SPR; also called wild type ADO; Biotinylated-ADO; source: E. coli Rosetta2(DE3), purified (Ni-NTA, SEC); not shown: biotinylation tag (from the vector pQE80L-Navi), N-terminal, kept
T2 sequence (looked up): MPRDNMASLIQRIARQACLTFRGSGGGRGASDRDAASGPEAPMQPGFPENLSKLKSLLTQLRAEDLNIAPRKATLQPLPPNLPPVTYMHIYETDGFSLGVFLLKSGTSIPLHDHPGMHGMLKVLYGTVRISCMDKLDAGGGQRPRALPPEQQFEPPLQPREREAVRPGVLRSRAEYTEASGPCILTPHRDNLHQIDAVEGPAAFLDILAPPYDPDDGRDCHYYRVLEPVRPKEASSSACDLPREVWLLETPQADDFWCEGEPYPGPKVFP
Outline: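 Biotinylated full-length human ADO was made in E. coli with a His tag, then purified by nickel affinity and gel filtration. It was captured on a Biotin CAP chip at about 2500–3000 RU in a Biacore T200, and cyclic peptides were flowed over it. The run was at 4 °C in HEPES pH 7.5 buffer with 500 mM NaCl, DTT and tween-20, at 50 µL/minute. Kd came from a 1:1 binding fit of single-cycle kinetic sensorgrams, with three independent measurements.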

[3] = biological target: T3, 2-aminoethanethiol dioxygenase (ADO), full-length human, N-terminally His-tagged and biotinylated … (human, UniProt Q96SZ5 1-270, biotin (biotinylated during expression, 0.2 mM biotin added)); assay: cell-based or functional assay
T3 sequence (looked up): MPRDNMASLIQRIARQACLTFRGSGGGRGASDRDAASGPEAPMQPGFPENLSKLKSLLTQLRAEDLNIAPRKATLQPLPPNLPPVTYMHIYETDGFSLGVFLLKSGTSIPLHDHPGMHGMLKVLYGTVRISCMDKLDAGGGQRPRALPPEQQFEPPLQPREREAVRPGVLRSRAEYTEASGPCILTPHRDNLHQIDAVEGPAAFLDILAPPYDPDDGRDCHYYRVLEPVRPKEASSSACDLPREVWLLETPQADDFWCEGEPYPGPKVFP

[4] = biological target: T3, 2-aminoethanethiol dioxygenase (ADO), …; assay: SPR; single cycle kinetic (SCK) analysis, 1:1 binding model; biotinylated ADO immobilised on a Biotin CAP chip (~2500-3000 RU), cyclic peptides injected; 4 °C; 20 mM HEPES pH 7.5, 500 mM NaCl, 10 mM DTT, 0.1% tween-20; 50 μL/minute; conditions: both partners purified
[5] = Fig. 3c series, geometric mean of a minimum of three independent measurements (n = 3)
[6] = 1:1 binding model, 4 °C, geometric mean of a minimum of three independent measurements (n = 3) with standard error

Molecule: CC[C@H](C)[C@@H]1NC(=O)[C@H](Cc2ccc(O)cc2)NC(=O)CSC[C@@H](C(N)=O)NC(=O)[C@H](CCC(N)=O)NC(=O)[C@H](CCCNC(=N)N)NC(=O)[C@H](Cc2c[nH]cn2)NC(=O)[C@H](CO)NC(=O)CNC(=O)[C@H](CCCCNC(=O)[C@@H](N)CO)NC(=O)[C@H](Cc2c[nH]c3ccccc23)NC(=O)[C@H](Cc2ccccc2)NC(=O)[C@H]([C@@H](C)O)NC(=O)[C@H](CCCCN)NC(=O)[C@H](C(C)C)NC1=O [CP6-L8K-Ser] ({CH2CO}-YIVKTFWK(Ser)GSHRQC-NH2; thioether N-14)
Kd [1, 5]: 21 ± 4.9 nM

Molecule: CC[C@H](C)[C@@H]1NC(=O)[C@H](CCCNC(=N)N)NC(=O)[C@H](Cc2ccc(O)cc2)NC(=O)CSC[C@@H](C(=O)N2CCC[C@H]2C(=O)N[C@@H](CS)C(N)=O)NC(=O)[C@H](CC(C)C)NC(=O)[C@H](C(C)C)NC(=O)[C@H](Cc2c[nH]c3ccccc23)NC(=O)[C@H](CO)NC(=O)[C@H](CCCNC(=N)N)NC(=O)[C@H](Cc2ccccc2)NC(=O)[C@H](C(C)C)NC(=O)[C@H](CCCNC(=N)N)NC(=O)[C@H]([C@@H](C)CC)NC1=O [CP2] ({CH2CO}-YRIIRVFRSWVLCPC-NH2; thioether N-13; N-terminus and C-terminus assumed)
KD ([1]; replicate 1): 6280 nM
KD ([1]; replicate 2): 5190 nM
KD ([1]; replicate 3): 4690 nM

Molecule: CC[C@H](C)[C@@H]1NC(=O)[C@H](Cc2ccc(O)cc2)NC(=O)CSC[C@@H](C(N)=O)NC(=O)[C@H](CCC(N)=O)NC(=O)[C@H](CCCNC(=N)N)NC(=O)[C@H](Cc2c[nH]cn2)NC(=O)[C@H](CO)NC(=O)CNC(=O)[C@H](CCCCNC(=O)[C@@H](N)CS)NC(=O)[C@H](Cc2c[nH]c3ccccc23)NC(=O)[C@H](Cc2ccccc2)NC(=O)[C@H]([C@@H](C)O)NC(=O)[C@H](CCCCN)NC(=O)[C@H](C(C)C)NC1=O [CP6-L8K-Cys] ({CH2CO}-YIVKTFWK(Cys)GSHRQC-NH2; thioether N-14)
Kd ([1]; Fig. 3c / Supplementary Fig. 15 series, replicate 3): 13.6 nM

Molecule: CC(C)C[C@@H]1NC(=O)[C@H](CCCNC(=N)N)NC(=O)CNC(=O)[C@H](CCCNC(=N)N)NC(=O)[C@H](CCCNC(=N)N)NC(=O)[C@@H]2CCCN2C(=O)[C@H](Cc2ccccc2)NC(=O)CNC(=O)[C@H](CCC(=O)O)NC(=O)[C@H](CC(N)=O)NC(=O)[C@H](CC(C)C)NC(=O)[C@H]([C@@H](C)O)NC(=O)[C@H](Cc2c[nH]c3ccccc23)NC(=O)[C@H](Cc2ccc(O)cc2)NC(=O)CSC[C@@H](C(N)=O)NC1=O [CP3] ({CH2CO}-YWTLNEGFPRRGRLC-NH2; thioether N-15; N-terminus and C-terminus assumed)
KD ([1]; replicate 1): 13500 nM
KD ([1]; replicate 2): 5000 nM
KD ([1]; replicate 3): 6630 nM

Molecule: CC[C@H](C)[C@@H]1NC(=O)[C@H](Cc2ccc(O)cc2)NC(=O)CSC[C@@H](C(N)=O)NC(=O)[C@H](CCC(N)=O)NC(=O)[C@H](CCCNC(=N)N)NC(=O)[C@H](Cc2c[nH]cn2)NC(=O)[C@H](CO)NC(=O)CNC(=O)[C@H](CCCNC(=O)[C@@H](N)CO)NC(=O)[C@H](Cc2c[nH]c3ccccc23)NC(=O)[C@H](Cc2ccccc2)NC(=O)[C@H]([C@@H](C)O)NC(=O)[C@H](CCCCN)NC(=O)[C@H](C(C)C)NC1=O [CP6-L8O-Ser] ({CH2CO}-YIVKTFW[Orn](Ser)GSHRQC-NH2; thioether N-14)
Kd [1, 5]: 140 ± 120 nM

Molecule: CC(C)C[C@@H]1NC(=O)[C@H](Cc2c[nH]c3ccccc23)NC(=O)[C@H]([C@@H](C)O)NC(=O)[C@H]([C@@H](C)O)NC(=O)[C@H](CO)NC(=O)[C@H](C(C)C)NC(=O)[C@H]([C@@H](C)O)NC(=O)[C@H](Cc2ccc(O)cc2)NC(=O)CSC[C@@H](C(N)=O)NC(=O)[C@H](CCC(N)=O)NC(=O)[C@H](CCCNC(=N)N)NC(=O)[C@H](Cc2c[nH]cn2)NC(=O)[C@H]([C@@H](C)O)NC(=O)CNC1=O [CP1] ({CH2CO}-YTVSTTWLGTHRQC-NH2; thioether N-14)
Kd [1, 6]: 35.4 ± 2.11 nM

B1: CP6-L8d-Lys-Ser (peptide)
chain: {CH2CO}-YIVKTFW[Dap]([Lys-Ser])GSHRQC
modifications: thioether N-14
Kd [2]: 461 nM and 530 nM and 472 nM

B9: CP6-L8d-Gly-Ser (peptide)
chain: {CH2CO}-YIVKTFW[Dap]([Gly-Ser])GSHRQC
modifications: thioether N-14
Kd [2]: 154 nM and 144 nM and 145 nM

Further lines, results first:

Kd [1, 6]: 66.2 ± 0.86 nM
Kd [1, 5]: 51 ± 0.25 nM
Molecule: CC[C@H](C)[C@@H]1NC(=O)[C@H](Cc2ccc(O)cc2)NC(=O)CSC[C@@H](C(N)=O)NC(=O)[C@H](CCC(N)=O)NC(=O)[C@H](CCCNC(=N)N)NC(=O)[C@H](Cc2c[nH]cn2)NC(=O)[C@H](CO)NC(=O)CNC(=O)[C@H](CC(C)C)NC(=O)[C@H](Cc2c[nH]c3ccccc23)NC(=O)[C@H](Cc2ccccc2)NC(=O)[C@H]([C@@H](C)O)NC(=O)[C@H](CCCCN)NC(=O)[C@H](C(C)C)NC1=O [CP6] ({CH2CO}-YIVKTFWLGSHRQC-NH2; thioether N-14)

IC50 of inhibition of ADO activity (oxidation of RGS5_(2-15), LCMS) [3]: > 50000 nM
Kd [4]: > 5000 nM
B2: cyclic peptide CP2 (peptide)
peptide: {CH2CO}-YRIIRVFRSWVLCPC
modifications: thioether N-13
notes: cyclic peptide selected against ADO by RaPID mRNA display; source: synthetic peptide (solid-phase peptide synthesis)

IC50 of inhibition of ADO activity (oxidation of RGS5_(2-15), LCMS) [3]: 5680 nM
Kd [4]: 40 nM
B3: cyclic peptide CP5 (peptide)
peptide: {CH2CO}-YITITSWLGTLRQC
modifications: thioether N-14
notes: as for B2

IC50 of inhibition of ADO activity (oxidation of RGS5_(2-15), LCMS) [3]: 1730 nM
Kd [4]: 4.7 nM
B4: cyclic peptide CP8 (peptide)
peptide: {CH2CO}-YTYRYPSILRVWARYGC
modifications: thioether N-17
notes: as for B2

Kd [2]: 79.9 nM and 77.7 nM and 78.1 nM
B5: CP6-L8d-Phe-Ser (peptide)
chain: {CH2CO}-YIVKTFW[Dap]([Phe-Ser])GSHRQC
modifications: thioether N-14

Kd [4]: > 5000 nM
B6: cyclic peptide CP3 (peptide)
peptide: {CH2CO}-YWTLNEGFPRRGRLC
modifications: thioether N-15
notes: as for B2

IC50 of inhibition of ADO activity (oxidation of RGS5_(2-15), LCMS) [3]: > 50000 nM
B7: cyclic peptide CP4 (peptide)
peptide: {CH2CO}-YYYVLGTILVKRYRFC
modifications: thioether N-16
notes: as for B2

IC50 of inhibition of ADO activity (oxidation of RGS5_(2-15), LCMS) [3]: 1720 nM
Kd [4]: 35 nM
B8: cyclic peptide CP1 (peptide)
peptide: {CH2CO}-YTVSTTWLGTHRQC
modifications: thioether N-14
notes: cyclic peptide selected against ADO by RaPID mRNA display; Details of synthesis are in the supplementary methods; source: synthetic peptide (solid-phase peptide synthesis)

IC50 of inhibition of ADO activity (oxidation of RGS5_(2-15), LCMS) [3]: 950 nM
Kd [4]: 66 nM
B10: cyclic peptide CP6 (peptide)
peptide: {CH2CO}-YIVKTFWLGSHRQC-NH2
modifications: thioether N-14
SMILES: CC[C@H](C)[C@@H]1NC(=O)[C@H](Cc2ccc(O)cc2)NC(=O)CSC[C@@H](C(N)=O)NC(=O)[C@H](CCC(N)=O)NC(=O)[C@H](CCCNC(=N)N)NC(=O)[C@H](Cc2c[nH]cn2)NC(=O)[C@H](CO)NC(=O)CNC(=O)[C@H](CC(C)C)NC(=O)[C@H](Cc2c[nH]c3ccccc23)NC(=O)[C@H](Cc2ccccc2)NC(=O)[C@H]([C@@H](C)O)NC(=O)[C@H](CCCCN)NC(=O)[C@H](C(C)C)NC1=O
notes: cyclic peptide selected against ADO by RaPID mRNA display; also called unmodified CP6; source: synthetic peptide (solid-phase peptide synthesis)
